The target in the test is His6-tagged CNA (isoform not told) (UniProt P16298 1-524). The test is described as follows: SPR. A general note: SPR reads the build-up and loss of mass on a sensor chip optically.

Drawing on article PMC9166766 (2022), this text covers Kd for one molecule.

No end group written: not given here. *: point of attachment. Biotin = O=C1N[C@H]2[C@H](CS[C@H]2CCCCC(=O)*)N1

The term Kd denotes the constant that tells how readily two partners part at equilibrium. A low value points to higher affinity.

The molecule Biotin-AAAMAGFPPEITVTPPTP [biotin-labeled CABIN1-L-1 peptide] returned a dissociation constant Kd of 512 nM.
